# Measurements reported in article PMC9245660 (Proceedings of the National Academy of Sciences of the …, 2022).
# Biological target: Tom22-T1′ (Tom22 without helix H1) (human) (UniProt Q9NS69)
# Test: pull-down
substance,measurement,value
Su9-TEV-DHFR-EGFP-Strep,decrease in the binding ability against Tom22 before cleavage,75%
